From US20120108492A1, “LIGAND-SPECIFIC NON-ANTIBODY COMPOUNDS THAT INHIBIT CR2 ACTIVATION AND METHODS OF USE THEREOF” (The Regents of the University of Colorado, priority 2008, published 2012)
Read-outs that look alike come from different tables or passages of the source.

Legend:
[1] = test system: anti-CR2 SCR1-2 monoclonal antibody 171; assay: MBP-CR2 SCR1-2-171 mAb ELISA; assay type: binding; conditions: mutant MBP-CR2 SCR1-2 relative to wild-type; for % 171 mAb Binding: plate-bound 171 mAb
Experimental: See Asokan et al. (2006) J Immunol 177:383-94; Guthridge et al. (2001) J Immunol 167:5758-66; Young et al. (2007) J Biol Chem 282:36614-36625. […] Hannan et al. (2005) J Mol Biol 346:845-58; and Young et al. (2007) J Biol Chem 282:36614-36625.
(§1) After coating, the plates were blocked using 0.1% BSA in a PBS solution, pH 7.4 for one hour at room temperature. The plates were then washed, and incubated with either wild-type or mutant MBP-CR2 SCR1-2, at concentrations ranging from 0.03125-2.0 μg/ml in PBS for one hour at room temperature. After further washing, wild-type or mutant MBP-CR2 binding was detected using commercially available horseradish peroxidase-conjugated anti-MBP mAb (New England Biolabs) according to the manufacturer's instructions.

anti-CR2 SCR1-2 mAb 629 = assay: MBP-CR2 SCR1-2-629 mAb ELISA; assay type: binding; conditions: mutant MBP-CR2 SCR1-2 relative to wild-type; for % 629 mAb Bindng: plate-bound 629 mAb
Excerpt: The excellent correlation observed between our cell-binding studies and the ELISA analyses provides proof-of-principle that the MBP-CR2 SCR1-2 ELISA is an effective means of characterizing CR2-ligand interactions. […] See Asokan et al. (2006) J Immunol 177:383-94; Guthridge et al. (2001) J Immunol 167:5758-66; Young et al. (2007) J Biol Chem 282:36614-36625. […] This epitope overlaps extensively with the binding surface on CR2 described above for EBV gp350, and also with the previously described binding sites for C3dg and C3d. Hannan et al. (2005) J Mol Biol 346:845-58; and Young et al. (2007) J Biol Chem 282:36614-36625.
as §1

EBV gp350 [2] = target: T1, EBV gp350 (Epstein-Barr virus, UniProt P03200); assay: MBP-CR2 SCR1-2 mutant-EBV gp350 ELISA; assay type: binding; set-up: DNA corresponding to residues 1-470 of EBV gp350/220; E. coli biotin carboxyl carrier protein (BCCP) fragment, residues 70-156; hexa-histidine (C); made in house; host or cells: human embryonic kidney 293f freestyle cells (pSecTag2/Hygro B); conditions: for EBV gp350 binding relative to wild-type CR2: mutant MBP-CR2 SCR1-2
Experimental: See Martin et al. (1991) J Exp Med 174:1299-311; Young et al. (2007) J Biol Chem 282:36614-36625; Guthridge et al. (2001) Biochemistry 40:5931-41; and Sarrias et al. (2001) J Immunol 167:1490-9. […] Young et al. (2007) J Biol Chem 282:36614-36625.
as §1

EBV gp350 [3] = target: T1, EBV gp350; conditions: previously observed cell-binding study; mutant CR2 relative to wild-type; cited from earlier work

T1 sequence (P03200 1-470): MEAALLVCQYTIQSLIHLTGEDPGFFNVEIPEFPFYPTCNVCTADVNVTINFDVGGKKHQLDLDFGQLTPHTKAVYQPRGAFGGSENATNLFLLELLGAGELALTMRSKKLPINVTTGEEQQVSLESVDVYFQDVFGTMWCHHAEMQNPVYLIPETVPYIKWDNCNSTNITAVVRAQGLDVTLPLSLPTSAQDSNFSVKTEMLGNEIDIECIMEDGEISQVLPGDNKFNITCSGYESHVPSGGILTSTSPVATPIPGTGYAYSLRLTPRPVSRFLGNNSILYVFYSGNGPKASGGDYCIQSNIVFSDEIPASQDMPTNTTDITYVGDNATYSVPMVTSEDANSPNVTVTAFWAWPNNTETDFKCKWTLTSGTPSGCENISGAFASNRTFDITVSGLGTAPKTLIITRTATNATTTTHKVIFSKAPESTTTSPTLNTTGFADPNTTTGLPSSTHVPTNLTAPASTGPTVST

| Molecule | Weighting (171 mAb) [1] | % 171 mAb Binding [1] [%] | Weighting (629 mAb) (anti-CR2 SCR1-2 mAb 629) | % 629 mAb Bindng (anti-CR2 SCR1-2 mAb 629) [%] | EBV gp350 binding relative to wild-type CR2 (EBV gp350 [2]) | decrease in EBV gp350 binding (EBV gp350 [2]; reduction relative to wild-type MBP-CR2 SCR1-2) | EBV gp350 binding (EBV gp350 [3]) [%] | EBV gp350 binding (EBV gp350 [2]; mutant CR2 relative to wild-type CR2) [%] |
| --- | --- | --- | --- | --- | --- | --- | --- | --- |
| S15P: single-site mutant of recombinant MBP-CR2 SCR1-2 (protein, left off: large carriers; small tags and cut ends) ISCGSPPPILNGRIPYYSTPIAVGTVIRYSCSGTFRLIGEKSLLCITKDKVDGTWDKPAPKCEYFNKYSSCPEPIVPGGYKIRGSTPYRHGDSVTFACKTNFSMNGNKSVWCQANNMWGPTRLPTCVSVFPLE | ++++ (++++>90%) | 108.5 | ++++ (++++>90%) | 91.7 | major reduction in EBV gp350 binding |  |  |  |
| L10A: single-site mutant of recombinant MBP-CR2 SCR1-2 (protein, left off: large carriers; small tags and cut ends) ISCGSPPPIANGRISYYSTPIAVGTVIRYSCSGTFRLIGEKSLLCITKDKVDGTWDKPAPKCEYFNKYSSCPEPIVPGGYKIRGSTPYRHGDSVTFACKTNFSMNGNKSVWCQANNMWGPTRLPTCVSVFPLE | ++++ (++++>90%) | 94.7 | ++++ (++++>90%) | 113.2 | failed to inhibit EBV gp350 binding |  |  |  |
| K67A: single-site mutant of recombinant MBP-CR2 SCR1-2 (protein, left off: large carriers; small tags and cut ends) ISCGSPPPILNGRISYYSTPIAVGTVIRYSCSGTFRLIGEKSLLCITKDKVDGTWDKPAPKCEYFNAYSSCPEPIVPGGYKIRGSTPYRHGDSVTFACKTNFSMNGNKSVWCQANNMWGPTRLPTCVSVFPLE | +++ (+++89.9-70%) | 87.7 | ++++ (++++>90%) | 107.2 |  | approximately 20% |  |  |
| Y16A: single-site mutant of recombinant MBP-CR2 SCR1-2 (protein, left off: large carriers; small tags and cut ends) ISCGSPPPILNGRISAYSTPIAVGTVIRYSCSGTFRLIGEKSLLCITKDKVDGTWDKPAPKCEYFNKYSSCPEPIVPGGYKIRGSTPYRHGDSVTFACKTNFSMNGNKSVWCQANNMWGPTRLPTCVSVFPLE | +++ (+++89.9-70%) | 81.4 | ++++ (++++>90%) | 154.4 | failed to inhibit EBV gp350 binding |  | 66.7 | 95.1 |
| R89A: single-site mutant of recombinant MBP-CR2 SCR1-2 (protein, left off: large carriers; small tags and cut ends) ISCGSPPPILNGRISYYSTPIAVGTVIRYSCSGTFRLIGEKSLLCITKDKVDGTWDKPAPKCEYFNKYSSCPEPIVPGGYKIRGSTPYAHGDSVTFACKTNFSMNGNKSVWCQANNMWGPTRLPTCVSVFPLE | ++++ (++++>90%) | 93.9 | +++ (+++89.9-70%) | 87.7 | decreased binding affinities for EBV gp350 |  |  |  |
| R83A: single-site mutant of recombinant MBP-CR2 SCR1-2 (protein, left off: large carriers; small tags and cut ends) ISCGSPPPILNGRISYYSTPIAVGTVIRYSCSGTFRLIGEKSLLCITKDKVDGTWDKPAPKCEYFNKYSSCPEPIVPGGYKIAGSTPYRHGDSVTFACKTNFSMNGNKSVWCQANNMWGPTRLPTCVSVFPLE | ++++ (++++>90%) | 96.9 | ++++ (++++>90%) | 94.4 | decreased binding affinities for EBV gp350 |  |  |  |
